The text below walks through data of FireProtDB (doi:10.1021/bi951726o).

First the molecules themselves.
B1: Tryptophan synthase alpha chain, P0A877 (parent)
chain: MERYESLFAQLKERKEGAFVPFVTLGDPGIEQSLKIIDTLIEAGADALELGIPFSDPLADGPTIQNATLRAFAAGVTPAQCFEMLALIRQKHPTIPIGLLMYANLVFNKGIDEFYAQCEKVGVDSVLVADVPVEESAPFRQAALRHNVAPIFICPPNADDDLLRQIASYGRGYTYLLSRAGVTGAENRAALPLNHLVAKLKEYNAAPPLQGFGISAPDQVKAAIDAGAAGAISGSAIVKIIEQHINEPEKMLAALKVFVQPMKAATRS

The data set covers variants of B1. The settings on record: Escherichia coli (strain K12), pH 7.8, Urea, NMR, Potassium phosphate 58 mM, reversible: yes, structure 1WQ5, whole UniProt chain shown.

Take MERYESLFAQLKERKEGAFVPFVTLGDPGIEQSLKIIDTLIEAGADALELGIPFSDPLADGPTIQNATLRAFAAGVTPAQCFEMLALIRQKHPTIPIGLLMAANLVFNKGIDEFYAQCEKVGVDSVLVADVPVEESAPFRQAALRHNVAPIFICPPNADDDLLRQIASYGRGYTYLLSRAGVTGAENRAALPLNHLVAKLKEYNAAPPLQGFGISAPDQVKAAIDAGAAGAISGSAIVKIIEQHINEPEKMLAALKVFVQPMKAATRS [Y102A]: where the note is “25 °C”, the “denaturant midpoint (higher = more stable)” value (shortened to “denaturant midpoint”) is 5 M and the unfolding free energy was found to be 22.6 kJ/mol.

MERYESLFAQLKERKEGAFVPFVTLGDPGIEQSLKIIDTLIEAGADALELGIPFSDPLADGPTIQNATLRAFAAGVTPAQCFEMLALIRQKHPTIPIGLAMYANLVFNKGIDEFYAQCEKVGVDSVLVADVPVEESAPFRQAALRHNVAPIFICPPNADDDLLRQIASYGRGYTYLLSRAGVTGAENRAALPLNHLVAKLKEYNAAPPLQGFGISAPDQVKAAIDAGAAGAISGSAIVKIIEQHINEPEKMLAALKVFVQPMKAATRS [L100A]: for the setting “25 °C”, the “denaturant midpoint” value was 5.2 M and the unfolding free energy came out at 19.7 kJ/mol.

As for MERYESLFAQLKERKEGAFVPFVTLGDPGIEQSLKIIDTLIEAGADALELGIPFSDPLADGPTIQNATLRAFAAGVTPAQCFEMLALIRQKHATIPIGLLMYANLVFNKGIDEFYAQCEKVGVDSVLVADVPVEESAPFRQAALRHNVAPIFICPPNADDDLLRQIASYGRGYTYLLSRAGVTGAENRAALPLNHLVAKLKEYNAAPPLQGFGISAPDQVKAAIDAGAAGAISGSAIVKIIEQAINEPEKMLAALKVFVQPMKAATRS [P93A H244A], for the setting “25 °C”, the “denaturant midpoint” value was 5.4 M and the unfolding free energy was found to be 14.2 kJ/mol.

On to MERYESLFAQLKERKEGAFVPFVTLGDPGIEQSLKIIDTLIEAGADALELGIPFSDPLADGPTIQNATLRAFAAGVTPAQCFEMLALIRQKHPTAPIGLLMYANLVFNKGIDEFYAQCEKVGVDSVLVADVPVEESAPFRQAALRHNVAPIFICPPNADDDLLRQIASYGRGYTYLLSRAGVTGAENRAALPLNHLVAKLKEYNAAPPLQGFGISAPDQVKAAIDAGAAGAISGSAIVKIIEQHINEPEKMLAALKVFVQPMKAATRS [I95A], for which, where the note is “25 °C”, the “denaturant midpoint” value came out at 6.2 M and the unfolding free energy was determined as 33.1 kJ/mol.

Regarding MERYESLFAQLKERKEGAFVPFVTLGDPGIEQSLKIIDTLIEAGADALELGIPFSDPLADGPTIQNATLRAFAAGVTPAQCFEMLALIRQKHPTIAIGLLMYANLVFNKGIDEFYAQCEKVGVDSVLVADVPVEESAPFRQAALRHNVAPIFICPPNADDDLLRQIASYGRGYTYLLSRAGVTGAENRAALPLNHLVAKLKEYNAAPPLQGFGISAPDQVKAAIDAGAAGAISGSAIVKIIEQHINEPEKMLAALKVFVQPMKAATRS [P96A], for the setting “25 °C”, the “denaturant midpoint” value was found to be 8.6 M and the unfolding free energy came out at 20.5 kJ/mol.

Regarding MERYESLFAQLKERKEGAFVPFVTLGDPGIEQSLKIIDTLIEAGADALELGIPFSDPLADGPTIQNATLRAFAAGVTPAQCFEMLALIRQKHPTIPIGLLMYANLVFNKGIDEFYAQCEKVGVDSVLVADVPVEESAPFRQAALRHNVAPIFICPPNADDDLLRQIASYGRGYTYLLSRAGVTGAENRAALPLNHLVAKLKEYNAAPPLQGFGISAPDQVKAAIDAGAAGAISGSAIVKIIEQAINEPEKMLAALKVFVQPMKAATRS [H244A], under “5 °C”, the “denaturant midpoint” value stood at 4.8 M and the unfolding free energy is 16.7 kJ/mol.
